The values that follow come from patent US20020146774A1 (LUDWIG INSTITUTE FOR CANCER RESEARCH, published 2002).

Where no end group is shown, it is not given here. [ ]: non-standard residue; d: D form. pS = N[C@@H](COP(=O)(O)O)C(=O)O

The target in this assay is T1, GST (UniProt P08515 1-218 = GST).
T1 construct: Control for GST-Smad4; also called GST protein
Put plainly: peptide-Sepharose pull-down, anti-GST immunoblot. From the text:
To investigate whether phosphorylated Ser465 and Ser467 of Smad2 are directly involved in heteromeric interaction with Smad4, phosphorylated and non-phosphorylated peptides corresponding to the C-terminus of Smad2 were made and tested for their ability to bind GST-Smad4 fusion proteins. Short C-terminal peptide of Smad2 SSMS (SNp; SEQ ID NO: 3) or its phosphorylated counterpart (SPp), as well as long C-terminal-peptide […] (LNp; SEQ ID NO: 4) or its phosphorylated counterpart (LPp), coupled to CNBr-Sepharose (peptide beads), were incubated with GST or GST-Smad4 fusion protein. For competition large excesses (200 μM) of non-phosphorylated short (SNp) or long (LNp) peptides or their phosphorylated counterpart (SPp and LPp, respectively) were used (block). Proteins bound to the beads, were resolved by SDS-PAGE, transferred to nitrocellulose membrane and immunoblotted with anti-GST antibodies. Migration positions of GST and GST-Smad4 are shown by double arrows. Molecular masses of standard proteins are indicated on the left side on gel in which protein-stained GST and GST-Smad4 are shown. […] The phosphorylated long peptide also bound GST-Smad4 more efficiently, than the non-phosphorylated counterpart, however, a considerable binding was observed also to the long non-phosphorylated peptide.

T1 sequence (P08515 whole entry): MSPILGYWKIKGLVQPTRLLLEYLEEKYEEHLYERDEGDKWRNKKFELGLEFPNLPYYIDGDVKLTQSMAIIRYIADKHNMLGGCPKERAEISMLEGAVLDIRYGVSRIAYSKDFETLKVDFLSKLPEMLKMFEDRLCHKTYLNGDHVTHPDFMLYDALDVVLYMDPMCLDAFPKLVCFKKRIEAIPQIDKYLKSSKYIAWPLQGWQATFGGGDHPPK

B1: short C-terminal peptide of Smad2 SSpMSp, doubly phosphorylated (peptide)
peptide: KKKS[pS]M[pS]
notes: The same phosphopeptide was the immunogen of the Smad2 phospho tail antibody; also called SPp
As to B1, the binding result is “no binding”.
